According to patent publication US20230312672A1 (published 2023):

Target: T1, CD20 peptide on HLA-A*02:01 (human)
T1 peptide: SLFLGILSV
Assay: multimer staining

B1: TCR 79B2 (TCR, V domains shown)
Valpha: GEQVEQLPSILRVQEGSSASINCSYEDSASNYFPWYKQEPGENPKLIIDIRSNMERKQIQELIVLLDKKAKRFSLHITDTQPGDSAMYFCAASANTGANTGKLTFGHGTILRVHP
Vbeta: ETAVFQTPNYHVTQVGNEVSFNCKQTLGHDTMYWYKQDSKKLLKIMFSYNNKQLIVNETVPRRFSPQSSDKAHLNLRIKSVEPEDSAVYLCASSWGLGSYEQYFGPGTRLTVL
binding result: recognises
